Experimental data from publication PMC3694296, “11β-Hydroxysteroid dehydrogenase type 1 contributes to the balance between 7-keto- and 7-hydroxy-oxysterols in vivo” (Biochemical Pharmacology, 2013).

How the values were obtained:
[1] = substrate: C[C@]12C[C@H](O)[C@H]3[C@@H](CCC4=CC(=O)CC[C@@]43C)[C@@H]1CC[C@@H]2C(=O)CO; experiment: oxidation kinetics (Km) with recombinant enzyme, HPLC; format: biochemical, Mus musculus; conditions: NADP+
[2] = substrate: C[C@]12CC(=O)[C@H]3[C@@H](CCC4=CC(=O)CC[C@@]43C)[C@@H]1CC[C@@H]2C(=O)CO; experiment: reduction kinetics (Km) with recombinant enzyme, HPLC; format: biochemical, Mus musculus; conditions: NADPH

B1: 11β-hydroxysteroid dehydrogenase type 1 (murine 11βHSD1, m11βHSD1) (Mus musculus) (protein)
chain: NEEFRPEMLQGKKVIVTGASKGIGREMAYHLSKMGAHVVLTARSEEGLQKVVSRCLELGAASAHYIAGTMEDMTFAEQFIVKAGKLMGGLDMLILNHITQTSLSLFHDDIHSVRRVMEVNFLSYVVMSTAALPMLKQSNGSIAVISSLAGKMTQPMIAPYSASKFALDGFFSTIRTELYITKVNVSITLCVLGLIDTETAMKEISGIINAQASPKEECALEIIKGTALRKSEVYYDKSPLTPILLGNPGRKIMEFFSLRYYNKDMFVSN
notes: truncated form of recombinant m11βHSD1 protein (N23Δ)
B1 showed a Km [1] of 1.78 ± 0.56 µM, a Vmax [1] of 4.82 ± 0.65 pmol/µg/min and a Vmax/Km [1] of 2.7 L/ug/min x 10^-6. The Km [2] was 0.20 ± 0.25 µM, the Vmax [2] was 8.56 ± 4.06 pmol/µg/min and the Vmax/Km [2] was 42.8 L/ug/min x 10^-6.
